In the experiment the target is V. parahaemolyticus YeaZ, fragment 1-213 as in the crystals (Vibrio parahaemolyticus). Kind of experiment: crystal structure; X-ray, 3.1 Å; asymmetric unit with four subunits (two dimers related by a non-crystallographic two-fold axis); crystals of fragment 1-213; no nucleotide.

“V. parahaemolyticus YeaZ, fragment 1-213 as in the crystals (domain or fragment)” had a stoichiometry N of 2.

Usually stoichiometry N stands for the number of molecules, sites or subunits per partner or assembly.

For the origin of these results see PMC3157347.
